The text below walks through data of publication PMC5064212, “HigB of Pseudomonas aeruginosa Enhances Killing of Phagocytes by Up-Regulating the Type III Secretion System in Ciprofloxacin Induced Persister Cells”.

This data set addresses HigA-His (Pseudomonas aeruginosa PA14, UniProt A0A0H2ZHN2 1-101). Nature of the data set: EMSA; 0, 4 or 20 nM HigA, 300 ng DNA, 5 mM Ca2+. To be noted: protein: recombinant; tags: His (6xHis with Gly-Gly linker at C-terminus per higA cloning primer S4); chain copies: 2; label: none (ethidium bromide stain); blunt. Background: Mobility shift assays separate free from complexed probe on a gel.

B1: 38-bp fragment with scrambled palindrome (EMSA-(M)) (dsDNA)
DNA 1: CTGTAGTGAAGTCTAGACTTAAGCATATGGGTTAATGA
DNA 2: TCATTAACCCATATGCTTAAGTCTAGACTTCACTACAG
Consider B1, for which the binding result is given as “no binding”.

B2: 38-bp higB-higA promoter fragment (dsDNA)
DNA 1: CTGTAGTGAAGTTAACGCTTAACGTTAAGGGTTAATGA
DNA 2: TCATTAACCCTTAACGTTAAGCGTTAACTTCACTACAG
Turning to B2, the binding result is reported as “binds”.
